Publication PMC3335857, “Heme Oxygenase Isoforms Differ in Their Subcellular Trafficking during Hypoxia and Are Differentially Modulated by Cytochrome P450 Reductase” (PLoS ONE, 2012)

Biological target: the molecule itself
Experiment: SEC; 150 µg purified S-HO variant (expressed alone, or full length S-HO co-expressed and co-purified with CPR) on Superdex 200 10/300 GL; 50 mM TEA-HCl, 250 mM NaCl, pH 8.0; peaks blotted with HO antibodies

B1: Strep-tagged full length heme oxygenase-1 (S-HO-1) (enzyme, human, UniProt P09601 1-288, looked up)
chain: MERPQPDSMPQDLSEALKEATKEVHTQAENAEFMRNFQKGQVTRDGFKLVMASLYHIYVALEEEIERNKESPVFAPVYFPEELHRKAALEQDLAFWYGPRWQEVIPYTPAMQRYVKRLHEVGRTEPELLVAHAYTRYLGDLSGGQVLKKIAQKALDLPSSGEGLAFFTFPNIASATKFKQLYRSRMNSLEMTPAVRQRVIEEAKTAFLLNIQLFEELQELLTHDTKDQSPSRAPGLRQRASNKVQDSAPVETPRGKPPLNTRSQAPLLRWVLTLSFLVATVAVGLYAM
notes: human heme oxygenase 1 (HO-1), cloned from human placenta cDNA, full length; also called full length HO-1; source: Sf9, recombinant baculovirus; not shown: Strep-tag II, N-terminal, kept
binding result: binds

B2: Strep-tagged full length heme oxygenase-2 (S-HO-2) (enzyme, human, UniProt P30519 1-316, looked up)
chain: MSAEVETSEGVDESEKKNSGALEKENQMRMADLSELLKEGTKEAHDRAENTQFVKDFLKGNIKKELFKLATTALYFTYSALEEEMERNKDHPAFAPLYFPMELHRKEALTKDMEYFFGENWEEQVQCPKAAQKYVERIHYIGQNEPELLVAHAYTRYMGDLSGGQVLKKVAQRALKLPSTGEGTQFYLFENVDNAQQFKQLYRARMNALDLNMKTKERIVEEANKAFEYNMQIFNELDQAGSTLARETLEDGFPVHDGKGDMRKCPFYAAEQDKGALEGSSCPFRTAMAVLRKPSLQFILAAGVALAAGLLAWYYM
notes: human heme oxygenase 2 (HO-2), cloned from human placenta cDNA, full length; also called full length HO-2; source: Sf9, recombinant baculovirus; not shown: Strep-tag II, N-terminal, kept
binding result: binds
